The source of these data is patent EP4242225A1 (Consejo Superior De Investigaciones Científicas, dated 2023).

B1: Nb 2.11 (VHH)
VHH: QVQLVESGGGSVQAGGSLRLSCAASGDASNRKCVSWFRRAPGKEREGVALIFPVGSSTAYADSVKGRFTISQDSAKDTVYLQMNNLKPEDSGTYYCAAVSWGGRCNLETQTVTFWGQGTQVTVSS
B2: Nb 1.16 (VHH)
VHH: QVQLVESGGGSVQAGGSLRLSCAASGNTSKRKCVGWFRRAPGKEREGVTLIYTVGGSTVYADSVKGRFTISQDNAKDTVYLQMNSLKPEDSAMYYCAAESWGRQCNLETHRFTFWGQGTQVTVSS
B3: Nb 2.20 (VHH)
VHH: QVQLVESGGGSVQAGGSLRLSCAASGYTYNNYYMGWFRQAPGKEREGVAAINSDGLDTYVADSVKGRFTISRDNAKDTVHLQMNSLKPEDTAIYSCATGRTVYYSGYDFRLSVDDYWGQGTQVTVSS
B4: Nb 1.29 (VHH)
VHH: QVQLVESGGGSVQAGGSLRLSCAASGYTINTDAVAWFRQAPGKGDERVAVIYTGSGNTNYADSVKGRFTISQDNAKNTVYLQMNSLKPEDTALYYCASGYYGASGYDFNNWGQGTQVTVSS
B5: Nb 1.26 (VHH)
VHH: QVQLVESGGGLVQAGGSLRLSCAATGYTWSSVCMGWFRQAPGKEREGVAGIPSGRNRPYYADSVKGRFTISQDNAKNAVFLLMNSLKPEDTAIYYCAPCSAPHDPEYNYWGQGTQVTVSS
B6: Nb 2.1 (VHH)
VHH: QVQLVESGGGSVQAGGSLRLSCAAFGATISSAHMGWFRQAPGKEREGVAFRYTDGSSTYYTTSVRGRFTISQDNAKNTVYLQMNSLKPEDTAMYYCASNPSWGRLVGGQYNNWGQGTQITVSS
B7: hcAb 1.10 (Fc fusion)
heavy: QVQLVESGGGSVQAGGSLRLSCAASGYTYSTCRKGWYRQAPGKERELVASITADGATYYLDSVKGRLTISQDNAKNTVYLQMNSLKPEDTAVYYCAASVKDFTCTFNSWGQGTQVTVSS
B8: hcAb 2.15 (Fc fusion)
heavy: QVQLVESGGGSVQAGGSLKLSCAASGYASWARKCIGWFRQAPGQEREGVAAIFDFDGSTYYSDSVKGRFTISGDNAKNTVSLQMNSLLPKDTAVYYCTVAFGTCDNWYRGRGDYWGQGTQVTVSS
B9: hcAb 2.20 (Fc fusion)
heavy: B3 VHH
notes: also called 2.20Fc; 2.20 hcAb
B10: hcAb 1.29 (Fc fusion)
heavy: B4 VHH
B11: hcAb 1.26 (Fc fusion)
heavy: B5 VHH
B12: hcAb 2.1 (Fc fusion)
heavy: B6 VHH
notes: also called 2.1Fc
B13: bispecific hcAb 1.29-1.10 (bispecific antibody)
heavy: QVQLVESGGGSVQAGGSLRLSCAASGYTINTDAVAWFRQAPGKGDERVAVIYTGSGNTNYADSVKGRFTISQDNAKNTVYLQMNSLKPEDTALYYCASGYYGASGYDFNNWGQGTQVTVSSGGGGSGGGGSGGGGSQVQLVESGGGSVQAGGSLRLSCAASGYTYSTCRKGWYRQAPGKERELVASITADGATYYLDSVKGRLTISQDNAKNTVYLQMNSLKPEDTAVYYCAASVKDFTCTFNSWGQGTQVTVSS
B14: hcAb 2.11 (Fc fusion)
heavy: B1 VHH
notes: also called 2.11Fc
B15: hcAb 1.16 (Fc fusion)
heavy: B2 VHH
notes: also called 1.16Fc

For one assay, the target named is T1, RBD-FH, monomeric RBD (332-534) with a FLAG peptide and an 8xHis-tag at the C-terminus (SARS-CoV-2, UniProt P0DTC2 332-534).
Assay: not given
As usually defined, the Kd is the equilibrium constant for the complex coming apart. In general, koff refers to the rate constant with which the complex falls apart. Low readings indicate a long-lived complex, high ones a short-lived complex. For orientation: kon means the second-order rate constant of association. Take B1: binding was characterised by a dissociation constant (Kd) of 1720 pM, the koff is 0.0054 s⁻¹ and the kon turned out to be 3.15e+06 M⁻¹ s⁻¹.

The molecule B2 showed a Kd of 3590 pM, a koff of 0.00705 s⁻¹ and a kon of 1.96e+06 M⁻¹ s⁻¹.

On to B3, for which the affinity, expressed as Kd, was 770 pM; the koff came to 0.00101 s⁻¹; the kon worked out at 1.3e+06 M⁻¹ s⁻¹.

Take B4: binding was put at a Kd of 12900 pM, the koff worked out at 0.00614 s⁻¹ and the kon stood at 476000 M⁻¹ s⁻¹.

The molecule B5 came in with a Kd of 260 pM, a koff of 0.000624 s⁻¹ and a kon of 2.44e+06 M⁻¹ s⁻¹.

B6: the Kd was 1740 pM, the koff turned out to be 0.00233 s⁻¹ and the kon worked out at 1.34e+06 M⁻¹ s⁻¹.

A further assay addresses S protein of SARS-CoV-2 on pseudotyped retroviral particles (Spp) (SARS-CoV-2, UniProt P0DTC2 14-1273). In words: cell-based or functional assay.
B7: the “inhibition of Spp entry into Vero-E6 cells (luciferase, 48 h.p.i.)” value (shortened to “inhibition … (luciferase, 48 h.p.i.)”) was more than 90%.

Consider B8, for which the “inhibition … (luciferase, 48 h.p.i.)” value is more than 90%.

Consider B9, for which the “inhibition … (luciferase, 48 h.p.i.)” value is not below 90%.

With B10, the “inhibition … (luciferase, 48 h.p.i.)” value is not below 90%.

For B11, the “inhibition … (luciferase, 48 h.p.i.)” value is not below 90%.

As to B12, the “inhibition … (luciferase, 48 h.p.i.)” value was more than 90%.

Another assay addresses T2, RBD-Fc, Wuhan strain (WA1) (SARS-CoV-2; human, UniProt P0DTC2 332-534).
T2 construct: range 332-534; also called WA1 RBD; WA1 RBD-Fc
In words: ELISA, biotin-labeled bispecific hcAb on plate-bound RBD-Fc.
In the case of B13, the binding result is given as “binds”.

The target of a further assay is T3, monomeric RBD of SARS-CoV-2 S (WA1) (SARS-CoV-2, UniProt P0DTC2 332-534).
T3 construct: domain: RBD
The assay is described as follows: ELISA, hcAb dilutions on plate-bound monomeric RBD. For orientation: In an ELISA, binding on a coated surface is turned into a signal by an enzyme label.
A word on the EC50: it is the concentration that produces a half-maximal response. Molecule B10 yielded an EC50 of 35000 pM.

In the case of B11, the response was half-maximal at 1000 pM (EC50).

The next assay deals with T1, RBD-FH, monomeric RBD (332-534) with a ….
Assay: not given
The source holds these as a separate data set.
B14 showed an equilibrium dissociation constant (Kd) of 160 pM, a koff of 0.0003 s⁻¹ and a kon of 1.82e+06 M⁻¹ s⁻¹.

On to B15, for which the Kd was found to be 250 pM, the koff is 0.000438 s⁻¹ and the kon came to 1.72e+06 M⁻¹ s⁻¹.

B9 registered a Kd of 210 pM, a koff of 0.000233 s⁻¹ and a kon of 1.09e+06 M⁻¹ s⁻¹.

B10 showed a dissociation constant Kd of 630 pM, a koff of 0.000221 s⁻¹ and a kon of 353000 M⁻¹ s⁻¹.

With B11, the Kd is 80 pM, the koff was found to be 0.000148 s⁻¹ and the kon is 1.76e+06 M⁻¹ s⁻¹.

Regarding B12, binding was put at a Kd of 360 pM, the koff was 0.000281 s⁻¹ and the kon amounted to 771000 M⁻¹ s⁻¹.
